Results reported in article PMC4964339 (Scientific Reports, 2016).

Target: T1, human claudin-4 (residues 1-183), tag-free (human, UniProt O14493 1-183)
T1 construct: also called tag-free claudin-4
T1 sequence (looked up): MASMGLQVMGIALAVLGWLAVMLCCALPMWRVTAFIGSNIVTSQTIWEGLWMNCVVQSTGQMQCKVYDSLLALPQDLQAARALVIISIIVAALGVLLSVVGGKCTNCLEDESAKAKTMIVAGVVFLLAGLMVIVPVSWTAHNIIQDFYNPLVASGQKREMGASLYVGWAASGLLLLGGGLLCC
Test: SPR
Conditions: both partners purified

B1: GST-tagged C-CPE (C-terminal fragment of Clostridium perfringens enterotoxin, residues 185-319) (domain or fragment)
chain: RCVLTVPSTDIEKEILDLAAATERLNLTDALNSNPAGNLYDWRSSNSYPWTQKLNLHLTITATGQKYRILASKIVDFNIYSNNFNNLVKLEQSLGDGVKDHYVDISLDAGQYVLVMKANSSYSGNYPYSILFQKF
Kd: 3.4 nM
